Experimental findings from article PMC9351521 (Proceedings of the National Academy of Sciences of the …, 2022) are described below.

Residue numbers refer to the chain shown, from its start. Names and notes keep the numbering of the source. Values joined by “and” are separate entries in the source; they are usually repeats but may differ in a detail not shown here. Equal values may be shown once.

What all share (conditions): both partners purified
Experiment [1] concerns the target T1, RBD-Fc (SARS-CoV-2, wild-type RBD (P0DTC2 …)).
T1 construct: also called RBD (immobilized as RBD-Fc on the chip)
The experiment is described as follows: SPR; […]; Biacore T200, PBS pH 7.4 with 0.005% P20, 25 °C; 1:1 binding model; […]. (In general: SPR reads the build-up and loss of mass on a sensor chip optically.)

The target in experiment [2] is RBD-Fc (SARS-CoV-2, wild-type RBD (P0DTC2 …)). The experiment is described as follows: SPR; Biacore T200, PBS pH 7.4 with 0.005% P20, 25 °C; […]; 1:1 binding model.
Experiment [3] concerns the target T2, biotinylated RBD (wild type) (SARS-CoV-2, wild-type RBD (P0DTC2 …)). The experiment is described as follows: SPR; […]; Biacore T200, PBS pH 7.4 with 0.005% P20, 25 °C; […].
Another experiment concerns the target biotinylated RBD (SARS-CoV-2, wild-type RBD (P0DTC2 …)). The experiment is described as follows: SPR; Biacore T200, PBS pH 7.4 with 0.005% P20, 25 °C; […].
In experiment [4] the target is T2, biotinylated RBD (wild type). The experiment can be described thus: SPR; […]; Biacore T200, PBS pH 7.4 with 0.005% P20, 25 °C; kinetic fit, 1:1 binding model; […].

B1: H11-A10 (VHH)
VHH: QVQLVESGGGLMQAGGSLRLSCAVSGRTFSTAAMGWFRQAPGKEREFVAAIRWSGGSAYYADSVKGRFTISRDKAKNTVYLQMNSLKYEDTAVYYCAGFSATRSLLSDYATWPYDYWGQGTQVTVSS
In the case of B1, in the experiment with RBD-Fc [1], the Kd – broadly, the constant that tells how readily two partners part at equilibrium – was 9.2 nM and 9.3 nM; the koff (in general, the first-order rate constant of dissociation) was 0.055 s⁻¹ and 0.047 s⁻¹; the kon – broadly, the second-order rate constant of association – was 5.9e+06 M⁻¹ s⁻¹ and 5e+06 M⁻¹ s⁻¹.

B2: nanobody H11-B5 (VHH)
VHH: B1 VHH with G98S, F99Y, S100Q
Molecule B2 returned a t1/2 with RBD-Fc [2] of 14 s.

B3: H11 V101Y R103S (VHH)
VHH: B1 VHH with G98Q, F99T, S100R, A101Y, R103S
In experiment [3], B3 came in with a Kd of 1700 nM.

B4: nanobody H11-H4 R52K (VHH)
VHH: B1 VHH with R52K, G98Q, F99T, S100H, A101Y, T102V, R103S, S104Y
Turning to B4, the binding result with biotinylated RBD was “no binding”.

B5: nanobody H11-A10 (VHH)
VHH: B1 VHH
B5: the t1/2 with RBD-Fc [2] was found to be 14 s.

B6: nanobody H11-H4 R52A (VHH)
VHH: B1 VHH with R52A, G98Q, F99T, S100H, A101Y, T102V, R103S, S104Y
Regarding B6, in the experiment with biotinylated RBD, the binding result is reported as “no binding”.

B7: nanobody H11-H4 R52E (VHH)
VHH: B1 VHH with R52E, G98Q, F99T, S100H, A101Y, T102V, R103S, S104Y
On to B7, for which the binding result in the experiment with biotinylated RBD is given as “no binding”.

B8: H11-H4 Q98R H100E (D4 hybrid) (VHH)
VHH: B1 VHH with G98R, F99T, S100E, A101Y, T102V, R103S, S104Y
Take B8: in experiment [4], the Kd is 4.3 nM and 4.8 nM; the koff was 0.024 s⁻¹ and 0.025 s⁻¹; the kon is 5.5e+06 M⁻¹ s⁻¹ and 5.2e+06 M⁻¹ s⁻¹.

B9: H11-B5 (VHH)
VHH: B1 VHH with G98S, F99Y, S100Q
Take B9: in the experiment with RBD-Fc [1], the Kd was 8.8 nM and 7.6 nM; the koff is 0.051 s⁻¹ and 0.046 s⁻¹; the kon is 5.8e+06 M⁻¹ s⁻¹ and 6.1e+06 M⁻¹ s⁻¹.

B10: H11-H4 Y104S (VHH)
VHH: B1 VHH with G98Q, F99T, S100H, A101Y, T102V, R103S
As for B10, the Kd in experiment [3] was determined as 273 nM.

B11: H11-H4 Y104F (VHH)
VHH: B1 VHH with G98Q, F99T, S100H, A101Y, T102V, R103S, S104F
B11: in experiment [4], the Kd was 37.4 nM and 33.2 nM; the koff was 0.072 s⁻¹ and 0.074 s⁻¹; the kon is 1.9e+06 M⁻¹ s⁻¹ and 2.2e+06 M⁻¹ s⁻¹.

B12: H11-H4 Y101A (VHH)
VHH: B1 VHH with G98Q, F99T, S100H, T102V, R103S, S104Y
In experiment [3], B12 showed a Kd of 791 nM.

B13: H11-H6 (VHH)
VHH: B1 VHH with F99S, S100K, A101I
Consider B13, for which, in the experiment with RBD-Fc [1], the Kd was 8.1 nM and 8.3 nM; the koff was 0.032 s⁻¹ and 0.025 s⁻¹; the kon was 3.9e+06 M⁻¹ s⁻¹ and 3e+06 M⁻¹ s⁻¹.

B14: nanobody H11-H6 (VHH)
VHH: B1 VHH with F99S, S100K, A101I
For the molecule B14, in the experiment with RBD-Fc [2], the t1/2 turned out to be 25 s.
